Test results taken from paper PMC10973363, “Insights into the modulation of bacterial NADase activity by phage proteins” (Nature Communications, 2024).

T1: DSR anti-defense 1 (DSAD1), His-tagged (UniProt Q796A8 1-120)
T1 construct: phage-encoded DSAD1, WP_004399562; aa 1-9 not built in the cryo-EM model; Cloned into a pET-derived vector with an N-terminal His tag; also called anti-DSR2 protein; His-tagged DSAD1; source: E. coli Rosetta (DE3), purified (Ni-NTA, anion exchange, gel filtration); not shown: His, N-terminal, kept
T1 sequence: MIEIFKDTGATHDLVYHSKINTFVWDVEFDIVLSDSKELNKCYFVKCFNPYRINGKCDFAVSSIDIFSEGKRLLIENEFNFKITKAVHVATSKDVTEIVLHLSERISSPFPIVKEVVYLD

T2: DSR2 CTD-only protein (ΔSIR2, aa 304-1005) (Bacillus subtilis 29R, UniProt P0DXN8 304-1005)
T2 construct: DSR2 from Bacillus subtilis 29R, WP_029317421, C-terminal domain aa 304-1005; source: E. coli Rosetta (DE3), purified (Ni-NTA, TEV cleavage, anion exchange, gel filtration); not shown: His, N-terminal, cleaved; MBP, N-terminal, cleaved
T2 sequence (looked up): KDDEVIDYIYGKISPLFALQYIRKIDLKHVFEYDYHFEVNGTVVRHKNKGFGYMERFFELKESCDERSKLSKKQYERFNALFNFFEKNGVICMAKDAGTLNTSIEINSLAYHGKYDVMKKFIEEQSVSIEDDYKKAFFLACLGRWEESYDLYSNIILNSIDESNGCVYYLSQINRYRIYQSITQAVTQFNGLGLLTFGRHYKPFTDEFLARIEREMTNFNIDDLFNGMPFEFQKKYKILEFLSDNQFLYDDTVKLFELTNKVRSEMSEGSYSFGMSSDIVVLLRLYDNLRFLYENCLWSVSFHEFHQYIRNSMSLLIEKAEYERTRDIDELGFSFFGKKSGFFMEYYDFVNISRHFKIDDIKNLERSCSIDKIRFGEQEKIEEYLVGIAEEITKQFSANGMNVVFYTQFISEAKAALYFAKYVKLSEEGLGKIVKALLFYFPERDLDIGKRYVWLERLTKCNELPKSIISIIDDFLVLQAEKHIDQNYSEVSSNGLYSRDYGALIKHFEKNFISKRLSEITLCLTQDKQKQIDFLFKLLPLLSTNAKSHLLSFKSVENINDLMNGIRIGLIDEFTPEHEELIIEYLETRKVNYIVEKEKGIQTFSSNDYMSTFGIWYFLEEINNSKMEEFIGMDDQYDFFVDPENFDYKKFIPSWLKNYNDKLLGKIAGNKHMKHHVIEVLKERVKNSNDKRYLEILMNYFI

B1: defense-associated sirtuin 2 (DSR2), full-length wild type (enzyme, Bacillus subtilis 29R, UniProt P0DXN8 1-1005, looked up)
chain: MVKVDLESKRYGEKLKEVFLMLDNNVVECIKEITESSRNGKLVFFVGAGVSTLSDYPQWWRLVDKYHEELYGSPKKGNYSSDEYLRIPQIFYNVKGEMAFDGILKDFFQVDKPTNPIHDKILAMNPAHVITTNYDNLIDTACWKRGKYFSVISAEEDVANATSSRYLLKVHGDFRKGFKGENVVLKEDDYLNYDQNYPLISNLMKTIIATHTIVFIGYGLGDYNINMLLNWVRKLQKDSFHKPFFIRTDPSPIENETLIYYENKGLRIIDAASLIDSNEYDYLERYSAVMDLLIESQENKFITKDDEVIDYIYGKISPLFALQYIRKIDLKHVFEYDYHFEVNGTVVRHKNKGFGYMERFFELKESCDERSKLSKKQYERFNALFNFFEKNGVICMAKDAGTLNTSIEINSLAYHGKYDVMKKFIEEQSVSIEDDYKKAFFLACLGRWEESYDLYSNIILNSIDESNGCVYYLSQINRYRIYQSITQAVTQFNGLGLLTFGRHYKPFTDEFLARIEREMTNFNIDDLFNGMPFEFQKKYKILEFLSDNQFLYDDTVKLFELTNKVRSEMSEGSYSFGMSSDIVVLLRLYDNLRFLYENCLWSVSFHEFHQYIRNSMSLLIEKAEYERTRDIDELGFSFFGKKSGFFMEYYDFVNISRHFKIDDIKNLERSCSIDKIRFGEQEKIEEYLVGIAEEITKQFSANGMNVVFYTQFISEAKAALYFAKYVKLSEEGLGKIVKALLFYFPERDLDIGKRYVWLERLTKCNELPKSIISIIDDFLVLQAEKHIDQNYSEVSSNGLYSRDYGALIKHFEKNFISKRLSEITLCLTQDKQKQIDFLFKLLPLLSTNAKSHLLSFKSVENINDLMNGIRIGLIDEFTPEHEELIIEYLETRKVNYIVEKEKGIQTFSSNDYMSTFGIWYFLEEINNSKMEEFIGMDDQYDFFVDPENFDYKKFIPSWLKNYNDKLLGKIAGNKHMKHHVIEVLKERVKNSNDKRYLEILMNYFI
notes: DSR2 from Bacillus subtilis 29R, WP_029317421; Cloned into the 2CT-10 vector (Addgene plasmid #55209) with His-MBP tag and TEV site; DSR2-TTP was cloned into a pET-derived vector with an N-terminal His tag; also called WT DSR2; full-length DSR2; source: E. coli Rosetta (DE3), purified (Ni-NTA, TEV cleavage, anion exchange, gel filtration); not shown: His, N-terminal, cleaved; MBP, N-terminal, …
B2: tail tube protein (TTP) from phage SPR, His-tagged (natural protein)
chain: MKTVIQDTADVYFKRKSDGKLVFTAEAQTASFSQAISEEKLRGGIGNKPLYILKSEKEINLTVKNAFFDLEWLAMTQGETIQEETKVKVFDREHGLIVDDTNKVTLKGKPVSDVTFYNKKGLTYKIAVSTDGTYTIPTAFAAAKDKLTAVYQIEKVGRRLAIKASKFSERYEVEYRTIAYNPDTEEVYSDIYIQFPNVSPSGEFEMSLENGNALAPEIKFEALADTDTDEMAVVIEASRDENTAAPVEDTTGSTQSSDLGGTTE
notes: tail tube protein of phage SPR, WP_010328117; C-terminal portion aa 240-264 not built in the cryo-EM model of the tube; Cloned into a pET-derived vector with an N-terminal His tag; Alone it polymerises into a tube of hexameric rings (cryo-EM); also called His-tagged TTP; tagged TTP; source: E. coli Rosetta (DE3), purified (Ni-NTA, anion exchange, gel filtration); not shown: His, N-terminal, kept

Legend:
[1] = target: T1, DSR anti-defense 1 (DSAD1), His-tagged; assay: cryo-EM structure; protein complexes (co-expressed and co-purified) or TTP tube at 0.5 mg/ml on Quantifoil Au grids, Titan Krios 300 kV; conditions: both partners purified
[2] = target: B2; assay: as above; conditions: both partners purified
[3] = target: the molecule itself; assay: native gel or EMSA; purified DSR2 at 1 mg/mL in gel-filtration buffer (25 mM Tris-HCl pH 7.5, 150 mM NaCl, 2 mM DTT) on a 5% native gel, 120 V, 40 min, 4 °C, Coomassie staining
[4] = target: the molecule itself; assay: cryo-EM structure; protein complexes (co-expressed and co-purified) or TTP tube at 0.5 mg/ml on Quantifoil Au grids, Titan Krios 300 kV
[5] = target: T2, DSR2 CTD-only protein (ΔSIR2, aa …); assay: pull-down; N-terminal His-tagged TTP or DSAD1 on Ni-NTA agarose beads, excess untagged DSR2 variants added, 1 h at 4 °C, 25 mM Tris-HCl pH 7.5, 300 mM NaCl, washes with 10 mM imidazole, SDS-PAGE with Coomassie staining; conditions: both partners purified
[6] = target: B1; assay: as above; conditions: both partners purified

Binder | stoichiometry N [1] [DSAD1 per DSR2 dimer] | stoichiometry N [2] [TTP per DSR2 tetramer] | stoichiometry N [3] | stoichiometry N [4] | binding result [5] | binding result [6]
B1 | 1 | 4 | 4 |  |  | 
B2 |  |  |  | 6 | binds | binds
